# Laboratory results as given in patent US7358088B2, “Peptides and compositions which modulate apoptosis” (ImmunoGen, Inc., priority 1995, dated 2008).
# Ends that are not written are not given here. * marks the point of attachment. Biotin = O=C1N[C@H]2[C@H](CS[C@H]2CCCCC(=O)*)N1
# Tests used:
# [1] = tested on: Mouse Embryonic Fibroblasts (MEF) lacking functional p53; experiment: Transient transfection cell killing assay in p53-/- fibroblasts; assay type: cell-based; settings: p53-/- transformed mouse fibroblasts, co-transfection with β-gal
# Protocol: (§1) Cells were fixed and stained with X-gal at 24 hours post-transfection, and the number of blue cells (β-galactosidase-positive) counted by microscopic examination. B. Mouse Embryonic Fibroblasts (MEF) lacking functional p53 (p53^−/−MEF) were co-transfected as described in(A). C. Hela cells, derived from cervical carcinoma, were co-transfected as described in (A). D. BT549 cells, derived from breast carcinoma, were co-transfected as described in (A).
# (§2) The transient transfection assay procedure is similar to that previously described for detecting apoptosis induced by IL-1E-converting enzyme (Miura et al., Cell 75: 653-660 (1993); Kumar et al., Genes Dev. 8: 1613-1626 (1994); Wang et al., Cell 78: 739-750 (1994). One day prior to transfection, Rat-1 cells were plated in 24 well dishes at 3.5X10^4 cells/well. The following day, the cells were transfected with a marker plasmid encoding β-galactosidase (0.16 μg), in combination with an expression plasmid encoding Bak (0.42 μg), by the Lipofectamine procedure (Gibco/BRL). At 24 hours post transfection, cells were fixed and stained with X-Gal to detect J-galactosidase expression in cells that received plasmid DNA (Miura et al., supra). The number of blue cells was counted by microscopic examination and scored as either live (flat blue cells) or dead (round blue cells). […]
# (§3) Bak cell killing activity was assessed in several additional cell lines. […]
# Bcl-xL [2] = molecular target: T1, Bcl-xL (Homo sapiens, UniProt Q07817); experiment: Co-immunoprecipitation of epitope-tagged proteins from transfected COS cells; assay type: cell-based; settings: anti-HA immunoprecipitation, western blot
# T1 sequence (Q07817 whole entry): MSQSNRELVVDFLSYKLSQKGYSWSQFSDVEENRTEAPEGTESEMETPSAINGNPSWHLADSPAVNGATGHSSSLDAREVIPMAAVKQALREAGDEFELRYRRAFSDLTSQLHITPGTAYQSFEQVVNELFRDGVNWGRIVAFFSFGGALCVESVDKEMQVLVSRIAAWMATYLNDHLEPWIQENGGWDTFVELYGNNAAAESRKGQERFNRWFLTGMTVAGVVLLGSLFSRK
# Protocol: B). Bak/Bcl-xL interactions detected in transfected cells. Plasmids expressing epitope-tagged forms of Bak and Bcl-xL (HA-Bak and Flag tag-Bcl-xL) were co-transfected into COS cells. HA-Bak was immunoprecipitated (anti-HA IP) from transfected cell lysates and associated Bcl-xL was detected by Western blot analysis with an anti-Flag tag antibody.
# COS cells were grown in Dulbecco's modified Eagle's medium (Life Technologies, Inc.) supplemented with 10% bovine calf serum, 2% L-glutamine and 1% pen/strep (Life Technologies, Inc.). Cells were seeded at 2.0×10^5 cells/35 mm well and transfected with expression plasmids 24 hours later using Lipofectamine as described by the supplier (Life Technologies, Inc.). Bak (and Bak mutants) was expressed as a fusion protein with the HA epitope tag at its amino terminus. Bcl-xL was also expressed with an amino terminal epitope tag (Flag; Kodak). At 24 hours post-transfection, cells were washed with phosphate buffered saline and lysed in NP-40 Lysis buffer also containing 1 mM PMSF, […] pepstatin, and […] leupeptin. The lysates were incubated with anti-HA antibody (12CA5, Boehringer Mannheim) for 1 hour and with […] BSA-washed Protein A-agarose beads (50% slurry) for an additional hour. The beads were washed twice with NP-40 lysis buffer followed by two washes with NP-40 lysis buffer without NP-40. […]
# [3] = tested on: Hela (cervical carcinoma) cells; experiment: Transient transfection cell killing assay in Hela cells; assay type: cell-based, human
# Protocol: as §1, §2, §3
# Bcl-xL [4] = molecular target: T1, Bcl-xL; experiment: In vitro protein binding assay, 35S labeled protein with GST-Bcl-xL on glutathione-agarose beads; parameters: made in house; host or cells: E. coli; settings: in vitro translated 35S labeled protein; GST alone as specificity control
# Protocol: A). Bak/Bcl-xL interactions measured in vitro. ^35S labeled in vitro translated Bak (lane 1) was mixed either with GST-Bcl-xL (lane 2) or GST (lane 3). The complexes were captured on glutathione-agarose beads, and bound ^35S labeled Bak protein was detected by electrophoresis on SDS polyacrylamide gels followed by autoradiography.
# The beads were removed by centrifugation and the supernatants were incubated with GST or GST-Bcl-xL (final concentration […]) at 4° C. for 1 hour. The GST fusion proteins and any interacting proteins were recovered by incubation for 1 hour with an additional […] of GSH-agarose beads. The beads were washed twice with NP-40 lysis buffer followed by two washes with NP-40 lysis buffer without NP-40. Proteins were eluted from the beads by incubation in SDS-PAGE sample buffer at 100° C. for 5 min and loaded onto 4-20% SDS-polyacrylamide gels. Following electrophoresis, gels were fixed and incubated in a fluorography enhancing solution (Amplify; Amersham). The gels were dried and subjected to autoradiography at −70° C.
# [5] = tested on: BT549 (breast carcinoma) cells; experiment: Transient transfection cell killing assay in BT549 cells; assay type: cell-based, human
# Protocol: as §1, §2, §3
# Rat-1 cells = experiment: Transient transfection cell killing assay (loss of β-galactosidase-positive blue cells); assay type: cell-based; settings: Rat-1 cells co-transfected with β-galactosidase marker plasmid, 24 hours post transfection, relative to control vector
# Protocol: The transient transfection assay procedure is similar to that previously described for detecting apoptosis induced by IL-1E-converting enzyme (Miura et al., Cell 75: 653-660 (1993); Kumar et al., Genes Dev. 8: 1613-1626 (1994); Wang et al., Cell 78: 739-750 (1994). One day prior to transfection, Rat-1 cells were plated in 24 well dishes at 3.5X10^4 cells/well. The following day, the cells were transfected with a marker plasmid encoding β-galactosidase (0.16 μg), in combination with an expression plasmid encoding Bak (0.42 μg), by the Lipofectamine procedure (Gibco/BRL). At 24 hours post transfection, cells were fixed and stained with X-Gal to detect J-galactosidase expression in cells that received plasmid DNA (Miura et al., supra). The number of blue cells was counted by microscopic examination and scored as either live (flat blue cells) or dead (round blue cells). The cell killing activity of Bak in this assay is manifested by a large reduction in the number of blue cells obtained relative to co-transfection of the β-gal plasmid with a control expression vector (i.e., with no bak cDNA insert).
# The interpretation that loss of blue cells reflects the cell killing function of Bak is supported by a variety of observations: • 1. Rat-1 cells are rapidly killed by enforced Bak expression in stable transfection assays; • 2.
# Enforced bak expression induces apoptosis in stable Rat-1 cell lines transfected with an inducible bak expression plasmid. In order to more rapidly assess the cell killing function of a large number of bak mutants, a transient transfection assay was employed. Rat-1 cells were transfected with a marker plasmid encoding β-galactosidase, in combination with an expression plasmid encoding Bak, or various control plasmids.
# GST-Bcl-xL = molecular target: T2, GST-Bcl-xL (Homo sapiens, UniProt Q07817); experiment: High through-put screening assay 1: biotinylated GD peptide on GST-Bcl-xL-coated multiwell plates, ELISA; assay type: binding; settings: ELISA with streptavidin-conjugated HRP, 4° C. for 1 hour
# T2 construct: made in house; host or cells: E. coli
# T2 sequence (Q07817 whole entry): as above
# Protocol: Multiwell plates (Nunc Maxisorp) were coated with GST-Bcl-xL and blocked with 1% normal goat serum in PBS. A N-biotinylated GD peptide corresponding to Bak (71-89; […] [SEQ ID NO: 35]) was added and the plates were incubated at 4° C. for 1 hour. The plates were washed to remove unbound GD peptide and the amount of bound peptide was determined by ELISA using streptavidin-conjugated horse radish peroxidase. Coating with GST-Bcl-xL was omitted in the control wells.
# According to the present example, multiwell plates coated with GST-Bcl-xL were incubated with a labeled GD domain peptide probe. […] More specifically, wells in a multiwell plate were coated without (control) or with GST-Bcl-xL and then incubated with a GD domain peptide derived from the Bcl-2 homolog Bak (amino acid residues 71-89; […] [SEQ ID NO: 35]). The peptide was labeled by biotinylation at the amino terminus to allow detection and quantitation of bound peptide using streptavidin-conjugated horse radish peroxidase (HRP) in a standard ELISA procedure. […] Compounds that antagonize GD domain-mediated interactions can be conveniently identified using this assay by adding candidate compounds to the wells during the binding step. Those compounds that disrupt the interaction of the biotinylated GD domain peptide with GST-Bcl-xL will cause a decrease in the ELISA signal.
# [6] = molecular target: T3, Bcl-xL/Bak GD domain interaction (Homo sapiens, UniProt Q07817); experiment: High through-put screening assay 2: GST-Bcl-xL binding to biotinylated Bak GD peptide on neutravidin wells, ELISA; settings: peptide bound to neutravidin-coated wells, ELISA with anti-GST-HRP
# T3 construct: made in house; host or cells: E. coli
# T3 sequence (Q07817 whole entry, the tested form may be a part): as the sequence (Q07817 whole entry) above
# Protocol: An assay was developed to screen for compounds that block the interaction between the Bcl-2 homologs, Bcl-xL and Bak. A synthetic peptide corresponding to the Bak GD binding domain ([…] [SEQ ID NO: 35]) was biotinylated and bound to wells coated with neutravidin. […] Peptides encompassing the GD domain from various Bcl-2 family members were tested for their ability to block GD domain-mediated interactions in this assay. Peptides tested: Bcl-w [SEQ ID NO: 39] […] ([…]), Bak [SEQ ID NO: 36]([…]), Bak-15 [SEQ ID NO: 37] ([…]), Bak-15L78A [SEQ ID NO: 38] ([…]), control (no peptide).
# In a modification of the high through-put screening assay 1 described herein, wells are coated with an avidin derivative, to which a biotinylated peptide/protein is bound. A GST-fusion protein that can interact with the biotinylated peptide/protein is added in the presence or absence of test compounds. The plates are incubated and then unbound GST-fusion protein is removed by washing. The amount of GST-fusion protein specifically bound to the tethered peptide/protein is determined by ELISA using an anti-GST antibody conjugated to horse radish peroxidase. Compounds which block the interaction between the biotinylated peptide/protein and the GST-fusion protein cause a decrease in the ELISA signal.
# In a specific example, an assay was developed to screen for compounds that block the interaction between the Bcl-2 homologs, Bcl-xL and Bak. A biotinylated Bak GD domain peptide (amino acid residues 71-89; N-biotinylated […] [SEQ ID NO: 35]) was bound to wells coated with neutravidin. […] Using this assay, peptides from Bcl-2 family members were identified which block the Bcl-xL/Bak GD domain interaction (FIG. 10).
# Bak = molecular target: T4, Bak (Homo sapiens, UniProt Q16611); experiment: GST-PEM in vitro binding of 35S labeled Bak; settings: GST fusion, in vitro translated 35S labeled Bak; GST alone as control
# T4 construct: diminished relative to full length Bak; host or cells: coupled transcription/translation in rabbit reticulocyte lysate
# T4 sequence (Q16611 1-211): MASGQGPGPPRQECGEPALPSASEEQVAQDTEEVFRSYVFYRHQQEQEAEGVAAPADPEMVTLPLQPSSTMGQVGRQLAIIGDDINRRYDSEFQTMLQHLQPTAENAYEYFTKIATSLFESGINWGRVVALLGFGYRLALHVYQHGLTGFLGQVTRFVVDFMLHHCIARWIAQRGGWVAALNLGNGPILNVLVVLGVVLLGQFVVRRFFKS
# Text: (§4) Complexes were captured with glutathione-agarose beads, washed, and bound proteins detected by polyacrylamide gel electrophoresis and autoradiography. […] Thus, the GD domain can mediate interaction not only with Bcl-xL but also Bak and Bax.
# (§5) Complexes were captured with glutathione-agarose beads, washed, and bound proteins detected by polyacrylamide gel electrophoresis and autoradiography.
# Bax = molecular target: T5, Bax (Homo sapiens, UniProt Q07812); experiment: GST-PEM in vitro binding of 35S labeled Bax; settings: GST fusion, in vitro translated 35S labeled Bax; GST alone as control
# T5 construct: host or cells: coupled transcription/translation in rabbit reticulocyte lysate
# T5 sequence (Q07812 whole entry, the tested form may be a part): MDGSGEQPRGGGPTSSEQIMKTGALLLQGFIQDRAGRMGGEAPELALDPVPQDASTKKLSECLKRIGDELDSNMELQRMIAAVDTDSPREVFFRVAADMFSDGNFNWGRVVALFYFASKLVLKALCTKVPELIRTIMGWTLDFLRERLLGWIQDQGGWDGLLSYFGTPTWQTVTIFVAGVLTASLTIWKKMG
# Text: as §4, §5
# Bip1a = molecular target: T6, Bip1a (Homo sapiens, UniProt Q13323); experiment: GST-PEM in vitro binding of 35S labeled Bip1a; settings: GST fusion, in vitro translated 35S labeled Bip1a
# T6 construct: host or cells: coupled transcription/translation in rabbit reticulocyte lysate
# T6 sequence (Q13323 1-160): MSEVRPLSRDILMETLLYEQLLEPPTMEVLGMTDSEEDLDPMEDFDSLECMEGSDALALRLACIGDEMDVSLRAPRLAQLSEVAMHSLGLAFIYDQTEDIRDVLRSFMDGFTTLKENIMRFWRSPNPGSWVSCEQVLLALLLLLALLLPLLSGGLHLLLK
# Text: as §4, §5
# Bcl-xL [7] = molecular target: T1, Bcl-xL; experiment: GST-PEM in vitro binding of 35S labeled Bcl-xL; parameters: made in house; host or cells: E. coli; settings: GST fusion, in vitro translated 35S labeled Bcl-xL; GST alone as control
# Text: as §4, §5
substance,measurement,setting,value
"Bak: Bcl-2 related cell death protein, HA-epitope tagged, expressed from plasmid or in vitro translated",cell killing (number of blue cells),[1],greatly reduced the number of blue cells
same,interaction with Bcl-xL in transfected cells,Bcl-xL [2],specific Bak/Bcl-xL interaction could also be detected
same,cell killing (number of blue cells),[3],can kill human tumor cells
same,binding to GST-Bcl-xL in vitro,Bcl-xL [4],binds
same,cell killing (number of blue cells),[5],can kill human tumor cells
same,cell killing activity (reduction in number of blue β-gal expressing cells),Rat-1 cells,large reduction in the number of blue (β-gal expressing) cells
"MGQVGRQLAIIGDDINRRY (Biotin-MGQVGRQLAIIGDDINRRY) [SEQ ID NO: 35, Bak GD domain peptide, amino acid residues 71-89, biotinylated at the amino terminus]",binding of biotinylated peptide to GST-Bcl-xL-coated wells,GST-Bcl-xL,specifically interacts in a concentration-dependent manner
same,binding of GST-Bcl-xL to the tethered biotinylated peptide,[6],bind specifically
"GST-PEM: portion of Bak (PEM, residues 58-103) encompassing the GD domain fused to GST, bacterially expressed",interaction with Bak (homodimerization),Bak,interact specifically
same,interaction with Bax (heterodimerization),Bax,interact specifically
same,interaction with Bip1a,Bip1a,does not interact
same,interaction with Bcl-xL,Bcl-xL [7],interact specifically
